# Assay results from US20230295310A1 (ABCELLERA BIOLOGICS, published 2023).
# Numbering of substitutions follows the chain as printed.
# B1: GOMP001_bsAb_019 (bispecific antibody, human IgG1, kappa, L234A L235A)
# heavy 1: QVQLVQSGAEVKKPGASVKVSCKASGYTFTSHWMHWVRKAPGQGLEWIGEFNPSNGRTNYNEEFKSKATMTVDTSTNTAYMELSSLRSEDTAVYYCASRDYDYDGRYFDYWGQGTLVTVSSASTKGPSVFPLAPSSKSTSGGTAALGCLVADYFPEPVTVSWNSGALTSGVHTFPAVLQSSGLYSLSSVVTVPSSSLGTQTYICNVNHKPSNTKVDEKVEPKSCDKTHTCPPCPAPEAAGGPSVFLFPPKPKDTLMISRTPEVTCVVVDVSHEDPEVKFNWYVDGVEVHNAKTKPREEQYNSTYRVVSVLTVLHQDWLNGKEYKCKVSNKALPAPIEKTISKAKGQPREPQVYTLPPSREEMTDNQVSLTCLVKGFYPSDIAVEWESNGQPENNYKTTPPVLMSDGSFFLASKLTVDKSRWQQGNVFSCSVMHEALHNHYTQKSLSLSPG
# light 1: RIQMTQSPSSLSASVGDRVTITCSASSSVTYMYWYQDKPGKAPKLLIYDTSNLASGVPSRFSGSGSGTDYTFTISSLQPEDIATYYCQQWSSHIFTFGQGTKVEIKRTVAAPSVFIFPPSDKQLKSGTARVVCLLNNFYPREAKVQWKVDNALQSGNSQESVTEQDSKDSTYSLSSTLTLSKADYEKHKVYACEVTHQGLSSPVTKSFNRGEC
# heavy 2: EVQLVDSGGGLVQPGGSLRLSCSGSGFTFSSYWMSWVRYAPGKGLEWVANIKQDGSQKYYVDRVKGRFTISRDNVKNSLYLQMNSLRVEDTAVYYCARDESSSWYWYFDLWGRGTLVTVSSASTKGPSVFPLAPSSKSTSGGTAALGCLVKDYFPEPVTVSWNSGALTSGVHTFPAVLQSSGLYSLSSVVTVPSSSLGTQTYICNVNHKPSNTKVDKKVEPKSCDKTHTCPPCPAPEAAGGPSVFLFPPKPKDTLMISRTPEVTCVVVDVSHEDPEVKFNWYVDGVEVHNAKTKPREEQYNSTYRVVSVLTVLHQDWLNGKEYKCKVSNKALPAPIEKTISKAKGQPRRPRVYTLPPSREEMTKNQVSLVCLVKGFYPSDIAVEWESNGQPENNYKTTPPVLDSDGSFFLYSVLTVDKSRWQQGNVFSCSVMHEALHNHYTQKSLSLSPG
# light 2: DIQMTQSPSTLSASVGDRVTLTCRASQNIVKWLAWYQRKPGDAPKLLIYKASSLESGVPSWFSGSGSGTEFTLTINSLQPDDFATYYCQQYYTYSRTFGQGTKVEIKRTVAAPSVFIFPPSDEQLKSGTASVVCLLNNFYPREAKVQWKVDNALQSGNSQESVTEQDSKDSTYSLSSTLTLSKADYEKHKVYACEVTHQGLSSPVTKSFNRGEC
# B2: GOMP001_bsAb_022 (bispecific antibody, human IgG1, kappa, L234A L235A)
# heavy 1: QMLLVESGGGVVQPGRSLTLSCAASGFTFRSYGMHWVRKAPGRGLEWVAIIWYDGSTEYYADEVKGRFTISRANSKNMLYLQMNSLRAEDTAVYYCAAFDYTNSFDIWGQGTMVTVSSASTKGPSVFPLAPSSKSTSGGTAALGCLVADYFPEPVTVSWNSGALTSGVHTFPAVLQSSGLYSLSSVVTVPSSSLGTQTYICNVNHKPSNTKVDEKVEPKSCDKTHTCPPCPAPEAAGGPSVFLFPPKPKDTLMISRTPEVTCVVVDVSHEDPEVKFNWYVDGVEVHNAKTKPREEQYNSTYRVVSVLTVLHQDWLNGKEYKCKVSNKALPAPIEKTISKAKGQPREPQVYTLPPSREEMTDNQVSLTCLVKGFYPSDIAVEWESNGQPENNYKTTPPVLMSDGSFFLASKLTVDKSRWQQGNVFSCSVMHEALHNHYTQKSLSLSPG
# light 1: RIVVTQTPLSSPVTLGQPASISCRSSQRFVHSDGNTYLSWLQDRPGQPPRLLIYKISNRISGVPDRFSGSGAGTDFKLKISRVEAEDVGIYYCMQATQFPYTFGQGTKLEIKRTVAAPSVFIFPPSDKQLKSGTARVVCLLNNFYPREAKVQWKVDNALQSGNSQESVTEQDSKDSTYSLSSTLTLSKADYEKHKVYACEVTHQGLSSPVTKSFNRGEC
# heavy 2: QVQLVQSGAEVKKPGASVKVSCKASGYTFTSHWMHWVRYAPGQGLEWIGEFNPSNGRTNYNEKFKSKATMTVDTSTNTAYMELSSLRSEDTAVYYCASRDYDYDGRYFDYWGRGTLVTVSSASTKGPSVFPLAPSSKSTSGGTAALGCLVKDYFPEPVTVSWNSGALTSGVHTFPAVLQSSGLYSLSSVVTVPSSSLGTQTYICNVNHKPSNTKVDKKVEPKSCDKTHTCPPCPAPEAAGGPSVFLFPPKPKDTLMISRTPEVTCVVVDVSHEDPEVKFNWYVDGVEVHNAKTKPREEQYNSTYRVVSVLTVLHQDWLNGKEYKCKVSNKALPAPIEKTISKAKGQPRRPRVYTLPPSREEMTKNQVSLVCLVKGFYPSDIAVEWESNGQPENNYKTTPPVLDSDGSFFLYSVLTVDKSRWQQGNVFSCSVMHEALHNHYTQKSLSLSPG
# light 2: B1 light 1 with R1D, D37R, K41D, K122E, R130S
# B3: GOMP001_bsAb_023 (bispecific antibody, human IgG1, kappa, L234A L235A)
# heavy 1: B1 heavy 1
# light 1: B1 light 1
# heavy 2: QGQLVESGGGVVQPGRSLRLSCEASGFTFRSYGMHWVRYPPGKGLEWVAIIWYDGGKKYYGDRVKGRFTISRDNPKNTLYLQMNSLRPEDTAVYYCMAYDYSNGFDIWGRGTMVTVSSASTKGPSVFPLAPSSKSTSGGTAALGCLVKDYFPEPVTVSWNSGALTSGVHTFPAVLQSSGLYSLSSVVTVPSSSLGTQTYICNVNHKPSNTKVDKKVEPKSCDKTHTCPPCPAPEAAGGPSVFLFPPKPKDTLMISRTPEVTCVVVDVSHEDPEVKFNWYVDGVEVHNAKTKPREEQYNSTYRVVSVLTVLHQDWLNGKEYKCKVSNKALPAPIEKTISKAKGQPRRPRVYTLPPSREEMTKNQVSLVCLVKGFYPSDIAVEWESNGQPENNYKTTPPVLDSDGSFFLYSVLTVDKSRWQQGNVFSCSVMHEALHNHYTQKSLSLSPG
# light 2: DIVMTQTPLSSPVTLGQPASISCRSSQSFVHSDGSTYLSWLQRRPGDPPRLLIYKISNRFSGVPDRFSGRGAGTDFTLKISRVEAEDVGIYYCMQNTQFPYTFGQGTKLEIKRTVAAPSVFIFPPSDEQLKSGTASVVCLLNNFYPREAKVQWKVDNALQSGNSQESVTEQDSKDSTYSLSSTLTLSKADYEKHKVYACEVTHQGLSSPVTKSFNRGEC
# B4: GOMP001_bsAb_020 (bispecific antibody, human IgG1, kappa, L234A L235A)
# heavy 1: EVQLVDSGGGLVQPGGSLRLSCSGSGFTFSSYWMSWVRKAPGKGLEWVANIKQDGSQKYYVDEVKGRFTISRDNVKNSLYLQMNSLRVEDTAVYYCARDESSSWYWYFDLWGRGTLVTVSSASTKGPSVFPLAPSSKSTSGGTAALGCLVADYFPEPVTVSWNSGALTSGVHTFPAVLQSSGLYSLSSVVTVPSSSLGTQTYICNVNHKPSNTKVDEKVEPKSCDKTHTCPPCPAPEAAGGPSVFLFPPKPKDTLMISRTPEVTCVVVDVSHEDPEVKFNWYVDGVEVHNAKTKPREEQYNSTYRVVSVLTVLHQDWLNGKEYKCKVSNKALPAPIEKTISKAKGQPREPQVYTLPPSREEMTDNQVSLTCLVKGFYPSDIAVEWESNGQPENNYKTTPPVLMSDGSFFLASKLTVDKSRWQQGNVFSCSVMHEALHNHYTQKSLSLSPG
# light 1: B1 light 2 with D1R, R38D, D42K, E123K, S131R
# heavy 2: B2 heavy 2
# light 2: B1 light 1 with R1D, D37R, K41D, K122E, R130S
# B5: GOMP001_bsAb_021 (bispecific antibody, human IgG1, kappa, L234A L235A)
# heavy 1: B1 heavy 1
# light 1: B1 light 1
# heavy 2: QMLLVESGGGVVQPGRSLTLSCAASGFTFRSYGMHWVRYAPGRGLEWVAIIWYDGSTEYYADRVKGRFTISRANSKNMLYLQMNSLRAEDTAVYYCAAFDYTNSFDIWGRGTMVTVSSASTKGPSVFPLAPSSKSTSGGTAALGCLVKDYFPEPVTVSWNSGALTSGVHTFPAVLQSSGLYSLSSVVTVPSSSLGTQTYICNVNHKPSNTKVDKKVEPKSCDKTHTCPPCPAPEAAGGPSVFLFPPKPKDTLMISRTPEVTCVVVDVSHEDPEVKFNWYVDGVEVHNAKTKPREEQYNSTYRVVSVLTVLHQDWLNGKEYKCKVSNKALPAPIEKTISKAKGQPRRPRVYTLPPSREEMTKNQVSLVCLVKGFYPSDIAVEWESNGQPENNYKTTPPVLDSDGSFFLYSVLTVDKSRWQQGNVFSCSVMHEALHNHYTQKSLSLSPG
# light 2: B2 light 1 with R1D, D43R, Q47D, K128E, R136S
# Target: EGFR on HeLa cells (UniProt P00533 25-1210, limits assumed)
# Test: cell-based or functional assay
Binder,Max killing % [%],X… HeLa EC50 [pM]
B1,48.3,
B2,60.6,478
B3,27.5,
B4,79.6,102
B5,25.4,
